Measured values taken from US20180155451A1 (published 2018).

target: T1, FcγRIa extracellular domain with C-terminal His tag (human, UniProt P12314 16-292); experiment: SPR (Biacore), captured antibody, FcγRIa analyte; relative to GpH7-A5/GpH7-B3/GpL16-k0 = 100
T1 construct: extracellular domain; Expressed in FreeStyle293 cells; used as analyte in Biacore; also called FcgRI; 1a; not shown: His tag at the C terminus
T1 sequence (P12314 16-292): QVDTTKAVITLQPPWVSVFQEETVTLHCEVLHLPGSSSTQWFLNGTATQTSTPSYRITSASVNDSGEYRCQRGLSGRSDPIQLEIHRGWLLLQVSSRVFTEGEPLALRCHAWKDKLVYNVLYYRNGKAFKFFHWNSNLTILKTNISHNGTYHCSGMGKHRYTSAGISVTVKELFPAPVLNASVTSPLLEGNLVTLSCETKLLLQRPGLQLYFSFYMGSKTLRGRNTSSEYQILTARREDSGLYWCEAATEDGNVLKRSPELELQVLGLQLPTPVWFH

Binder | He/Con_1a
GpH7-A5/GpH7-B3 variant (S337_20W)/GpL16-k0 (antibody, human IgG1, kappa, Heterodimerized; only the B3 chain altered; also called He Ab S337_20W) heavy 1: not shown heavy 2: not shown light: DIVMTQSPLSLPVTPGEPASISCQASESLVHSNRNTYLHWYLQKPGQSPQLLIYKVSNRFSGVPDRFSGSGSGTDFTLKISRVEAEDVGVYYCSQNTHVPPTFGQGTKVEIERTVAAPSVFIFPPSDEQLKSGTASVVCLLNNFYPREAKVQWKVDNALQSGNSQESVTEQDSKDSTYSLSSTLTLSKADYEKHKVYACEVTHQGLSSPVTKSFNRGEC | 105 % of control
GpH7-A5/GpH7-B3 variant (S337_19Q)/GpL16-k0 (antibody, human IgG1, kappa, Heterodimerized; only the B3 chain altered; also called He Ab S337_19Q) heavy 1: not shown heavy 2: not shown light: DIVMTQSPLSLPVTPGEPASISCQASESLVHSNRNTYLHWYLQKPGQSPQLLIYKVSNRFSGVPDRFSGSGSGTDFTLKISRVEAEDVGVYYCSQNTHVPPTFGQGTKVEIERTVAAPSVFIFPPSDEQLKSGTASVVCLLNNFYPREAKVQWKVDNALQSGNSQESVTEQDSKDSTYSLSSTLTLSKADYEKHKVYACEVTHQGLSSPVTKSFNRGEC | 105 % of control
GpH7-A5/GpH7-B3 variant (S337_15Y)/GpL16-k0 (antibody, human IgG1, kappa, Heterodimerized; only the B3 chain altered; also called He Ab S337_15Y) heavy 1: not shown heavy 2: not shown light: DIVMTQSPLSLPVTPGEPASISCQASESLVHSNRNTYLHWYLQKPGQSPQLLIYKVSNRFSGVPDRFSGSGSGTDFTLKISRVEAEDVGVYYCSQNTHVPPTFGQGTKVEIERTVAAPSVFIFPPSDEQLKSGTASVVCLLNNFYPREAKVQWKVDNALQSGNSQESVTEQDSKDSTYSLSSTLTLSKADYEKHKVYACEVTHQGLSSPVTKSFNRGEC | 104 % of control
GpH7-A5/GpH7-B3 variant (S337_10E)/GpL16-k0 (antibody, human IgG1, kappa, Heterodimerized; only the B3 chain altered; also called He Ab S337_10E) heavy 1: not shown heavy 2: not shown light: DIVMTQSPLSLPVTPGEPASISCQASESLVHSNRNTYLHWYLQKPGQSPQLLIYKVSNRFSGVPDRFSGSGSGTDFTLKISRVEAEDVGVYYCSQNTHVPPTFGQGTKVEIERTVAAPSVFIFPPSDEQLKSGTASVVCLLNNFYPREAKVQWKVDNALQSGNSQESVTEQDSKDSTYSLSSTLTLSKADYEKHKVYACEVTHQGLSSPVTKSFNRGEC | 106 % of control
GpH7-A5/GpH7-B3 variant (T335_05P)/GpL16-k0 (antibody, human IgG1, kappa, Heterodimerized; only the B3 chain altered; also called He Ab T335_05P) heavy 1: not shown heavy 2: not shown light: DIVMTQSPLSLPVTPGEPASISCQASESLVHSNRNTYLHWYLQKPGQSPQLLIYKVSNRFSGVPDRFSGSGSGTDFTLKISRVEAEDVGVYYCSQNTHVPPTFGQGTKVEIERTVAAPSVFIFPPSDEQLKSGTASVVCLLNNFYPREAKVQWKVDNALQSGNSQESVTEQDSKDSTYSLSSTLTLSKADYEKHKVYACEVTHQGLSSPVTKSFNRGEC | 106 % of control

Other lines, results leading:

He/Con_1a | Binder
104 % of control | GpH7-A5/GpH7-B3 variant (Y296_06M)/GpL16-k0 (antibody, human IgG1, kappa, Heterodimerized; only the B3 chain altered; also called He Ab Y296_06M) heavy 1: not shown heavy 2: not shown light: DIVMTQSPLSLPVTPGEPASISCQASESLVHSNRNTYLHWYLQKPGQSPQLLIYKVSNRFSGVPDRFSGSGSGTDFTLKISRVEAEDVGVYYCSQNTHVPPTFGQGTKVEIERTVAAPSVFIFPPSDEQLKSGTASVVCLLNNFYPREAKVQWKVDNALQSGNSQESVTEQDSKDSTYSLSSTLTLSKADYEKHKVYACEVTHQGLSSPVTKSFNRGEC
109 % of control | GpH7-A5/GpH7-B3 variant (T335_07I)/GpL16-k0 (antibody, human IgG1, kappa, Heterodimerized; only the B3 chain altered; also called He Ab T335_07I) heavy 1: not shown heavy 2: not shown light: DIVMTQSPLSLPVTPGEPASISCQASESLVHSNRNTYLHWYLQKPGQSPQLLIYKVSNRFSGVPDRFSGSGSGTDFTLKISRVEAEDVGVYYCSQNTHVPPTFGQGTKVEIERTVAAPSVFIFPPSDEQLKSGTASVVCLLNNFYPREAKVQWKVDNALQSGNSQESVTEQDSKDSTYSLSSTLTLSKADYEKHKVYACEVTHQGLSSPVTKSFNRGEC
106 % of control | GpH7-A5/GpH7-B3 variant (T335_16H)/GpL16-k0 (antibody, human IgG1, kappa, Heterodimerized; only the B3 chain altered; also called He Ab T335_16H) heavy 1: not shown heavy 2: not shown light: DIVMTQSPLSLPVTPGEPASISCQASESLVHSNRNTYLHWYLQKPGQSPQLLIYKVSNRFSGVPDRFSGSGSGTDFTLKISRVEAEDVGVYYCSQNTHVPPTFGQGTKVEIERTVAAPSVFIFPPSDEQLKSGTASVVCLLNNFYPREAKVQWKVDNALQSGNSQESVTEQDSKDSTYSLSSTLTLSKADYEKHKVYACEVTHQGLSSPVTKSFNRGEC
106 % of control | GpH7-A5/GpH7-B3 variant (Y296_16H)/GpL16-k0 (antibody, human IgG1, kappa, Heterodimerized; only the B3 chain altered; also called He Ab Y296_16H) heavy 1: not shown heavy 2: not shown light: DIVMTQSPLSLPVTPGEPASISCQASESLVHSNRNTYLHWYLQKPGQSPQLLIYKVSNRFSGVPDRFSGSGSGTDFTLKISRVEAEDVGVYYCSQNTHVPPTFGQGTKVEIERTVAAPSVFIFPPSDEQLKSGTASVVCLLNNFYPREAKVQWKVDNALQSGNSQESVTEQDSKDSTYSLSSTLTLSKADYEKHKVYACEVTHQGLSSPVTKSFNRGEC
108 % of control | GpH7-A5/GpH7-B3 variant (T335_09D)/GpL16-k0 (antibody, human IgG1, kappa, Heterodimerized; only the B3 chain altered; also called He Ab T335_09D) heavy 1: not shown heavy 2: not shown light: DIVMTQSPLSLPVTPGEPASISCQASESLVHSNRNTYLHWYLQKPGQSPQLLIYKVSNRFSGVPDRFSGSGSGTDFTLKISRVEAEDVGVYYCSQNTHVPPTFGQGTKVEIERTVAAPSVFIFPPSDEQLKSGTASVVCLLNNFYPREAKVQWKVDNALQSGNSQESVTEQDSKDSTYSLSSTLTLSKADYEKHKVYACEVTHQGLSSPVTKSFNRGEC
109 % of control | GpH7-A5/GpH7-B3 variant (T335_10E)/GpL16-k0 (antibody, human IgG1, kappa, Heterodimerized; only the B3 chain altered; also called He Ab T335_10E) heavy 1: not shown heavy 2: not shown light: DIVMTQSPLSLPVTPGEPASISCQASESLVHSNRNTYLHWYLQKPGQSPQLLIYKVSNRFSGVPDRFSGSGSGTDFTLKISRVEAEDVGVYYCSQNTHVPPTFGQGTKVEIERTVAAPSVFIFPPSDEQLKSGTASVVCLLNNFYPREAKVQWKVDNALQSGNSQESVTEQDSKDSTYSLSSTLTLSKADYEKHKVYACEVTHQGLSSPVTKSFNRGEC
